Results from patent publication US20170128524A1 (published 2017).

Target: T1, Syntaxin 1a (mouse, UniProt O35526 1-288)
T1 construct: also called STX1a; STX 1a
Assay: Co-IP with anti-STX1a antibody from mouse cortical synaptosomes, Western blot

T1 sequence (O35526 whole entry): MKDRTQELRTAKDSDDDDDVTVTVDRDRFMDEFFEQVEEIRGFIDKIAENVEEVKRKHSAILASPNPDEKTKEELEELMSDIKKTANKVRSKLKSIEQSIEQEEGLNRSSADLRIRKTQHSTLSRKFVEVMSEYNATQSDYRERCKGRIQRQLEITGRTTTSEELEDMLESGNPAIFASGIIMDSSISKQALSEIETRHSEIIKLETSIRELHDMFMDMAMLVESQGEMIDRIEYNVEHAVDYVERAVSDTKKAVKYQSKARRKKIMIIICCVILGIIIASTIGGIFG

B1: c-Jun N-terminal Kinase isoform 1 (JNK1) (enzyme, mouse, UniProt Q91Y86 1-384, looked up)
chain: MSRSKRDNNFYSVEIGDSTFTVLKRYQNLKPIGSGAQGIVCAAYDAILERNVAIKKLSRPFQNQTHAKRAYRELVLMKCVNHKNIIGLLNVFTPQKSLEEFQDVYIVMELMDANLCQVIQMELDHERMSYLLYQMLCGIKHLHSAGIIHRDLKPSNIVVKSDCTLKILDFGLARTAGTSFMMTPYVVTRYYRAPEVILGMGYKENVDLWSVGCIMGEMVCHKILFPGRDYIDQWNKVIEQLGTPCPEFMKKLQPTVRTYVENRPKYAGYSFEKLFPDVLFPADSEHNKLKASQARDLLSKMLVIDASKRISVDEALQHPYINVWYDPSEAEAPPPKIPDKQLDEREHTIEEWKELIYKEVMDLEERTKNGVIRGQPSPLAQVQQ
notes: Lower 46 kDa band of the JNK signal in the non-immunoprecipitated control; also called lower band, 46 kDa
Does B1 bind?
Result: no binding
